# Test results reported in paper PMC3019082.
# T1: I-SceI G100T (Saccharomyces cerevisiae, UniProt P03882 1-235, G100T)
# T1 sequence: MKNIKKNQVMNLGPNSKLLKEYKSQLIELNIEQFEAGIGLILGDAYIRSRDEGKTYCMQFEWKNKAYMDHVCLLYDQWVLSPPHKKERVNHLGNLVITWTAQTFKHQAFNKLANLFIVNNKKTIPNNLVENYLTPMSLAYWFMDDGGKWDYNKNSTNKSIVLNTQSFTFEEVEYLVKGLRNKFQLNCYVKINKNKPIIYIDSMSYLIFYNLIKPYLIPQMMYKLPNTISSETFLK
# T2: I-SceI K86R/G100S (Saccharomyces cerevisiae, UniProt P03882 1-235, K86R;G100S)
# T2 sequence: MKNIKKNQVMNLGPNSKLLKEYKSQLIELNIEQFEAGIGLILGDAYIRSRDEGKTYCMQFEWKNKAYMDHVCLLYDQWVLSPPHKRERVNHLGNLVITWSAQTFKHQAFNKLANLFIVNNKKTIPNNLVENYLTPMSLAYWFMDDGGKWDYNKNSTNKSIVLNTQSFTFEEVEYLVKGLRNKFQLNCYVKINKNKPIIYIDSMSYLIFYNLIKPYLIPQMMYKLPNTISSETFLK
# T3: I-SceI K86R/G100T (Saccharomyces cerevisiae, UniProt P03882 1-235, K86R;G100T)
# T3 sequence: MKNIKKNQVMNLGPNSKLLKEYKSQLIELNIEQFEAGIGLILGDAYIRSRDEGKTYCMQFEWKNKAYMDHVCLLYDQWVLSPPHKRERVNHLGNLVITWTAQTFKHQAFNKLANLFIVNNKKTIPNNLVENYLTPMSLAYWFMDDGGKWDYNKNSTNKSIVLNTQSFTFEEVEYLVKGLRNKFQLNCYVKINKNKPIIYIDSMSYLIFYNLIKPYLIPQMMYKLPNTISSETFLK
# T4: I-SceI wild type (K86/G100) (Saccharomyces cerevisiae, UniProt P03882 1-235)
# T4 sequence: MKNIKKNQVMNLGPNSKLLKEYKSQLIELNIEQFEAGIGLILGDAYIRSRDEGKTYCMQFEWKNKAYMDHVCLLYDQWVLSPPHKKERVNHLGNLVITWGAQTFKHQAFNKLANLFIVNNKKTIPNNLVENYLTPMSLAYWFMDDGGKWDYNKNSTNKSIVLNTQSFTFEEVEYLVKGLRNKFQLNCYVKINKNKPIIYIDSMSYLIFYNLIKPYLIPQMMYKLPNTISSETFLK
# T5: I-SceI K86R (Saccharomyces cerevisiae, UniProt P03882 1-235, K86R)
# T5 sequence: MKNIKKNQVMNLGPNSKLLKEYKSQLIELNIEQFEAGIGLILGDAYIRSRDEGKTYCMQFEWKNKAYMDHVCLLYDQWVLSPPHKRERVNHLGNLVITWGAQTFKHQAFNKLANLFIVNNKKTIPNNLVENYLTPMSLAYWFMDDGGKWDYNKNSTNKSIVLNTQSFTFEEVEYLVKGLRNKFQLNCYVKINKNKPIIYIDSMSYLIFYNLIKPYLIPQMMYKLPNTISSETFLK
# T6: I-SceI K86R/G100C (Saccharomyces cerevisiae, UniProt P03882 1-235, K86R;G100C)
# T6 sequence: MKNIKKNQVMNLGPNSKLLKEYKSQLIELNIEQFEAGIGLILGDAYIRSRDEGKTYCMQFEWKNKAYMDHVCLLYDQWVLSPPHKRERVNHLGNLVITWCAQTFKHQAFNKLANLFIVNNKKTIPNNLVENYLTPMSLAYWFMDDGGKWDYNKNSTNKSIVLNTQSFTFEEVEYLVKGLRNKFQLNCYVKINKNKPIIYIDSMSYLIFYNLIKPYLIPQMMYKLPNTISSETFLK
# T7: I-SceI G100C (Saccharomyces cerevisiae, UniProt P03882 1-235, G100C)
# T7 sequence: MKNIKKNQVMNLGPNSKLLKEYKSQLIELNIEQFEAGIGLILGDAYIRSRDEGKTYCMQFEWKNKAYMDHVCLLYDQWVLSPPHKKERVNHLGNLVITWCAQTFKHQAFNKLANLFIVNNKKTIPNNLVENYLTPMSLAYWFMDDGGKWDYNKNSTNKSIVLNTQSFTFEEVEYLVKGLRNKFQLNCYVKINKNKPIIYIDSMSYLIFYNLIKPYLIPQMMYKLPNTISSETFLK
# T8: I-SceI G100S (Saccharomyces cerevisiae, UniProt P03882 1-235, G100S)
# T8 sequence: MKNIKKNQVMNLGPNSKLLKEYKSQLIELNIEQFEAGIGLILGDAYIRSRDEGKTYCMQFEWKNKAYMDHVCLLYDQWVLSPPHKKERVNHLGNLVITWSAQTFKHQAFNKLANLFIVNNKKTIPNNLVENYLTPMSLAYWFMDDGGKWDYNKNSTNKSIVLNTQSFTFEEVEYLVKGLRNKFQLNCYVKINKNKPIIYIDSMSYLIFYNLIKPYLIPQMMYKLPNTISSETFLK
# T9: I-SceI G100V (Saccharomyces cerevisiae, UniProt P03882 1-235, G100V)
# T9 sequence: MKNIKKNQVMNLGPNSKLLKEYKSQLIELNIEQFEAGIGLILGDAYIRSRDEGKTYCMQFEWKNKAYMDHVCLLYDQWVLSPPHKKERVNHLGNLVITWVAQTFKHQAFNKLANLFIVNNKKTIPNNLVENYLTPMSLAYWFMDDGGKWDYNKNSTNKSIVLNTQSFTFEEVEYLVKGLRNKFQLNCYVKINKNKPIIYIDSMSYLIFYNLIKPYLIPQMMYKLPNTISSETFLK
# Columns and labels:
# Experiment in all cases: filter binding
# I-SceI G100T = target: T1, I-SceI G100T
# I-SceI K86R/G100S = target: T2, I-SceI K86R/G100S
# I-SceI K86R/G100T = target: T3, I-SceI K86R/G100T
# [1] = target: T4, I-SceI wild type (K86/G100)
# I-SceI K86R = target: T5, I-SceI K86R
# I-SceI K86R/G100C = target: T6, I-SceI K86R/G100C
# I-SceI G100C = target: T7, I-SceI G100C
# I-SceI G100S = target: T8, I-SceI G100S
# I-SceI G100V = target: T9, I-SceI G100V
Binder,Kd (I-SceI G100T),Kd (I-SceI K86R/G100S),Kd (I-SceI K86R/G100T),Kd [1],Kd (I-SceI K86R),Kd (I-SceI K86R/G100C),Kd (I-SceI G100C),Kd (I-SceI G100S),Kd (I-SceI G100V)
"A/T+4 (WT) I-SceI target, filter binding duplex (dsDNA) DNA 1: AACGAATAAAAGTTACGCTAGGGATAACAGGGTAATATAGCGAAAGAGTAGATATT DNA 2: CAATATCTACTCTTTCGCTATATTACCCTGTTATCCCTAGCGTAACTTT",39 ± 13 nM,83 ± 27 nM,96 ± 16 nM,9 ± 3 nM,35 ± 5 nM,74 ± 12 nM,110 ± 30 nM,150 ± 26 nM,240 ± 51 nM
"C/G+4 I-SceI target, filter binding duplex (dsDNA) DNA 1: AACGAATAAAAGTTACGCTAGGGATAACCGGGTAATATAGCGAAAGAGTAGATATT DNA 2: CAATATCTACTCTTTCGCTATATTACCCGGTTATCCCTAGCGTAACTTT",10 ± 1.5 nM,23 ± 4.3 nM,8.2 ± 0.86 nM,20 ± 4.6 nM,39 ± 10 nM,7.5 ± 2.3 nM,34 ± 8.8 nM,32 ± 10 nM,230 ± 27 nM
